Assay [1] deals with T1, cynomolgus monkey P-cadherin ECD (cynomolgus monkey).
T1 construct: extracellular domain; also called cyno P-cadherin ECD; Cyno P-cadherin
The assay is described as follows: SPR. (Surface plasmon resonance follows binding to a sensor surface in real time, without labels.)

Assay [2] deals with T2, human P-cadherin expressed on the cell surface (human, UniProt P22223 108-829). The assay is described as follows: cell-based or functional assay.
Assay [3] concerns the target T1, cynomolgus monkey P-cadherin ECD. The assay can be described thus: SPR Biacore pH 7.4, average.
Assay [4] shares this target. The assay is described as follows: SPR Biacore pH 7.4.
The target of assay [5] is T2, human P-cadherin expressed on the cell …. The assay can be described thus: cell-based or functional assay. This is another data set of the same source.

“And” between values parts separate entries of the source, which are not always exact repeats. Equal values may be shown once.

Usually Kd stands for the free concentration of one partner at which half of the binding sites on the other are occupied at equilibrium, for simple one-to-one binding. For orientation: koff means the first-order rate constant of dissociation. A word on the kon: it is a measure of how fast the partners come together. As a reminder, the t½ is how long it takes for the measured level to halve.

T2 sequence (P22223 108-829): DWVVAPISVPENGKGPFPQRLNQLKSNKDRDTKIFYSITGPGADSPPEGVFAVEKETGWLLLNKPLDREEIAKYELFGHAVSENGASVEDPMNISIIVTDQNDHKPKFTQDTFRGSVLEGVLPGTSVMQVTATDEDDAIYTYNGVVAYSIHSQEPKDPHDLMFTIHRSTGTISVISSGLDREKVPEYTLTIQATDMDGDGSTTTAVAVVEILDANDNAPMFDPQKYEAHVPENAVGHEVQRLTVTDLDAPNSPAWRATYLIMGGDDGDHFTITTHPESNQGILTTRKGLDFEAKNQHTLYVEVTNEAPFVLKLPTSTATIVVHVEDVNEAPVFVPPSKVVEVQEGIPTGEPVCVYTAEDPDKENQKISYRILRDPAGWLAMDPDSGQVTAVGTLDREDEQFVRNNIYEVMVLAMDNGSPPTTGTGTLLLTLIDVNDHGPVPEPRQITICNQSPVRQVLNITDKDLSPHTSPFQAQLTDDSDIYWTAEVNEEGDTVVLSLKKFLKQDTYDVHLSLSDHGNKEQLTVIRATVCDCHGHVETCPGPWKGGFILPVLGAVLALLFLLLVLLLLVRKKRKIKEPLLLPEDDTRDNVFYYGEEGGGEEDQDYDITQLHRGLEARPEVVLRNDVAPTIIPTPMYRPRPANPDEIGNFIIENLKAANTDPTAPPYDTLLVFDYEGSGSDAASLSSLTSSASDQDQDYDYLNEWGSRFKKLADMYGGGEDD

B1: LP-DART #2 (bispecific antibody)
chain 1: QAVVTQEPSLTVSPGGTVTLTCRSSTGAVTTSNYANWVQQKPGQAPRGLIGGTNKRAPWTPARFSGSLLGGKAALTITGAQAEDEADYYCALWYSNLWVFGGGTKLTVLGGGGSGGGGEVQLVQSGAEVKKPGASVKVSCKASGYTFTSYGISWVRQAPGQGLEWMGWISAYNGNTNYAQKLQGRVTMTTDTSTSTAYMELRSLRSDDTAVYYCATIDTASAFDIWGQGTMVTVSSGGTGGCPPCPAPEAAGAPSVFLFPPKPKDTLMISRTPEVTCVVVDVSHEDPEVKFNWYVDGVEVHNAKTKPREEQYNSTYRVVSVLTVLHQDWLNGKEYKCKVSNKALPAPIEKTISKAKGQPREPQVCTLPPSREEMTKNQVSLWCLVKGFYPSDIAVEWESNGQPENNYKTTPPVLDSDGSFFLYSKLTVDKSRWQQGNVFSCSVMHEALHNHYTQKSLSLSPG
chain 2: QSVLTQPPSVSAAPGQKVTISCSGSSSNIGNNYVSWYQQLPGTAPKLLIYDNNKRPSGIPDRFSGSKSGTSATLGITGLQTGDEADYYCGTWDSSLSAVVFGGGTKLTVLGGGSGGGGEVQLVESGGGLVQPGGSLRLSCAASGFTFNTYAMNWVRQAPGKGLEWVARIRSKYNNYATYYADSVKDRFTISRDDSKNSLYLQMNSLKTEDTAVYYCVRHGNFGNSYVSWFAYWGQGTLVTVSSGGTGGCPPCPAPEAAGAPSVFLFPPKPKDTLMISRTPEVTCVVVDVSHEDPEVKFNWYVDGVEVHNAKTKPREEQYNSTYRVVSVLTVLHQDWLNGKEYKCKVSNKALPAPIEKTISKAKGQPREPQVYTLPPCREEMTKNQVSLSCAVKGFYPSDIAVEWESNGQPENNYKTTPPVLDSDGSFFLVSKLTVDKSRWQQGNVFSCSVMHEALHNHYTQKSLSLSPG
notes: also called P-cadherin LP-DART construct #2 (P-CAD 35, CD3-2)
As for B1, the Kd in assay [1] was found to be 73.5 nM. For the same molecule, the “T cell Cytotoxicity” value in assay [2] is 0.92 nM.

B2: 153 MP3 C-terminal DART (bispecific antibody)
chain 1: DKTHTCPPCPAPEAAGAPSVFLFPPKPKDTLMISRTPEVTCVVVDVSHEDPEVKFNWYVDGVEVHNAKTKPREEQYNSTYRVVSVLTVLHQDWLNGKEYKCKVSNKALPAPIEKTISKAKGQPREPQVYTLPPSREEMTKNQVSLWCLVKGFYPSDIAVEWESNGQPENNYKTTPPVLDSDGSFFLYSKLTVDKSRWQQGNVFSCSVMHEALHNHYTQKSLSLSPGKAPSSSPMEQSVLTQPPSVSAAPGQKVTISCSGSSSNIGNNYVSWYQQLPGTAPKLLIYDNNKRPSGIPDRFSGSKSGTSATLGITGLQTGDEADYYCGTWDSSLSGVVFGGGTKLTVLGGGGSGGGGEVQLVESGGGLVQPGGSLRLSCAASGFTFSTYAMNWVRQAPGKGLEWVGRIRSKYNNYATYYADSVKGRFTISRDDSKNSLYLQMNSLKTEDTAVYYCVRHGNFGNSYVSWFAYWGQGTLVTVSSGVEPKSC
chain 2: QAVVTQEPSLTVSPGGTVTLTCRSSTGAVTTSNYANWVQQKPGQAPRGLIGGTNKRAPWTPARFSGSLLGGKAALTITGAQAEDEADYYCALWYSNLWVFGGGTKLTVLGGGGSGGGGEVQLVQSGAEVKKPGASVKVSCKASGYTFTSYGISWVRQAPGQGLEWMGWISAYNGNTNYAQKLQGRVTMTTDTSTSTAYMELRSLRSDDTAVYYCATIDTANAFGIWGQGTMVTVSSGFNRGEC
chain 3: DKTHTCPPCPAPEAAGAPSVFLFPPKPKDTLMISRTPEVTCVVVDVSHEDPEVKFNWYVDGVEVHNAKTKPREEQYNSTYRVVSVLTVLHQDWLNGKEYKCKVSNKALPAPIEKTISKAKGQPREPQVYTLPPSREEMTKNQVSLSCAVKGFYPSDIAVEWESNGQPENNYKTTPPVLDSDGSFFLVSKLTVDKSRWQQGNVFSCSVMHEALHNRYTQKSLSLSPGK
notes: also called C-terminal MP3-DART P-CAD153 VH and VL
In turn, B2 gave a Kd in assay [3] of 1.84 nM. In assay [4], the Kd was 1.56 nM and 2.11 nM; the koff was 0.000106 s⁻¹ and 0.000179 s⁻¹; the kon is 68000 M⁻¹ s⁻¹ and 84600 M⁻¹ s⁻¹; the t½ is 1.71 h and 1.01 h.

B3: LP-DART #3 (bispecific antibody)
chain 1: QAVVTQEPSLTVSPGGTVTLTCRSSTGAVTTSNYANWVQQKPGQAPRGLIGGTNKRAPWTPARFSGSLLGGKAALTITGAQAEDEADYYCALWYSNLWVFGGGTKLTVLGGGGSGGGGEVQLVQSGAEVKKPGASVKVSCKASGYTFTSYGISWVRQAPGQGLEWMGWISAYNGNTNYAQKLQGRVTMTTDTSTSTAYMELRSLRSDDTAVYYCATIDTASAFDIWGQGTMVTVSSGEPKSSDKTHTCPPCPAPEAAGAPSVFLFPPKPKDTLMISRTPEVTCVVVDVSHEDPEVKFNWYVDGVEVHNAKTKPREEQYNSTYRVVSVLTVLHQDWLNGKEYKCKVSNKALPAPIEKTISKAKGQPREPQVCTLPPSREEMTKNQVSLWCLVKGFYPSDIAVEWESNGQPENNYKTTPPVLDSDGSFFLYSKLTVDKSRWQQGNVFSCSVMHEALHNHYTQKSLSLSPG
chain 2: QSVLTQPPSVSAAPGQKVTISCSGSSSNIGNNYVSWYQQLPGTAPKLLIYDNNKRPSGIPDRFSGSKSGTSATLGITGLQTGDEADYYCGTWDSSLSAVVFGGGTKLTVLGGGSGGGGEVQLVESGGGLVQPGGSLRLSCAASGFTFNTYAMNWVRQAPGKGLEWVARIRSKYNNYATYYADSVKDRFTISRDDSKNSLYLQMNSLKTEDTAVYYCVRHGNFGNSYVSWFAYWGQGTLVTVSSGEPKSSDKTHTCPPCPAPEAAGAPSVFLFPPKPKDTLMISRTPEVTCVVVDVSHEDPEVKFNWYVDGVEVHNAKTKPREEQYNSTYRVVSVLTVLHQDWLNGKEYKCKVSNKALPAPIEKTISKAKGQPREPQVYTLPPCREEMTKNQVSLSCAVKGFYPSDIAVEWESNGQPENNYKTTPPVLDSDGSFFLVSKLTVDKSRWQQGNVFSCSVMHEALHNHYTQKSLSLSPG
notes: also called P-cadherin LP-DART construct #3 (P-CAD 35, CD3-2)
For the molecule B3, binding in assay [1] was put at a Kd of 85.7 nM. Besides, the “T cell Cytotoxicity” value in assay [2] turned out to be 1.6 nM.

B4: 35 LP-DART (bispecific antibody)
chain 1: QSVLTQPPSVSAAPGQKVTISCSGSSSNIGNNYVSWYQQLPGTAPKLLIYDNNKRPSGIPDRFSGSKSGTSATLGITGLQTGDEADYYCGTWDSSLSAVVFGGGTKLTVLGGGSGGGGEVQLVESGGGLVQPGGSLRLSCAASGFTFSTYAMNWVRQAPGKGLEWVGRIRSKYNNYATYYADSVKGRFTISRDDSKNSLYLQMNSLKTEDTAVYYCVRHGNFGNSYVSWFAYWGQGTLVTVSSGCPPCPAPEAAGAPSVFLFPPKPKDTLMISRTPEVTCVVVDVSHEDPEVKFNWYVDGVEVHNAKTKPREEQYNSTYRVVSVLTVLHQDWLNGKEYKCKVSNKALPAPIEKTISKAKGQPREPQVCTLPPSREEMTKNQVSLWCLVKGFYPSDIAVEWESNGQPENNYKTTPPVLDSDGSFFLYSKLTVDKSRWQQGNVFSCSVMHEALHNHYTQKSLSLSPG
chain 2: QAVVTQEPSLTVSPGGTVTLTCRSSTGAVTTSNYANWVQQKPGQAPRGLIGGTNKRAPWTPARFSGSLLGGKAALTITGAQAEDEADYYCALWYSNLWVFGGGTKLTVLGGGGSGGGGEVQLVQSGAEVKKPGASVKVSCKASGYTFTSYGISWVRQAPGQGLEWMGWISAYNGNTNYAQKLQGRVTMTTDTSTSTAYMELRSLRSDDTAVYYCATIDTASAFDIWGQGTMVTVSSGCPPCPAPEAAGAPSVFLFPPKPKDTLMISRTPEVTCVVVDVSHEDPEVKFNWYVDGVEVHNAKTKPREEQYNSTYRVVSVLTVLHQDWLNGKEYKCKVSNKALPAPIEKTISKAKGQPREPQVYTLPPCREEMTKNQVSLSCAVKGFYPSDIAVEWESNGQPENNYKTTPPVLDSDGSFFLVSKLTVDKSRWQQGNVFSCSVMHEALHNHYTQKSLSLSPG
Turning to B4, in assay [5], the “DU145 CTL (LDH) EC50” value is 0.0073 nM and the “HCT116 CTL (Luc) EC50” value turned out to be 0.107 nM.

B5: LP-DART #1 (bispecific antibody)
chain 1: QAVVTQEPSLTVSPGGTVTLTCRSSTGAVTTSNYANWVQQKPGQAPRGLIGGTNKRAPWTPARFSGSLLGGKAALTITGAQAEDEADYYCALWYSNLWVFGGGTKLTVLGGGGSGGGGEVQLVQSGAEVKKPGASVKVSCKASGYTFTSYGISWVRQAPGQGLEWMGWISAYNGNTNYAQKLQGRVTMTTDTSTSTAYMELRSLRSDDTAVYYCATIDTASAFDIWGQGTMVTVSSGCPPCPAPEAAGAPSVFLFPPKPKDTLMISRTPEVTCVVVDVSHEDPEVKFNWYVDGVEVHNAKTKPREEQYNSTYRVVSVLTVLHQDWLNGKEYKCKVSNKALPAPIEKTISKAKGQPREPQVCTLPPSREEMTKNQVSLWCLVKGFYPSDIAVEWESNGQPENNYKTTPPVLDSDGSFFLYSKLTVDKSRWQQGNVFSCSVMHEALHNHYTQKSLSLSPG
chain 2: QSVLTQPPSVSAAPGQKVTISCSGSSSNIGNNYVSWYQQLPGTAPKLLIYDNNKRPSGIPDRFSGSKSGTSATLGITGLQTGDEADYYCGTWDSSLSAVVFGGGTKLTVLGGGSGGGGEVQLVESGGGLVQPGGSLRLSCAASGFTFNTYAMNWVRQAPGKGLEWVARIRSKYNNYATYYADSVKDRFTISRDDSKNSLYLQMNSLKTEDTAVYYCVRHGNFGNSYVSWFAYWGQGTLVTVSSGCPPCPAPEAAGAPSVFLFPPKPKDTLMISRTPEVTCVVVDVSHEDPEVKFNWYVDGVEVHNAKTKPREEQYNSTYRVVSVLTVLHQDWLNGKEYKCKVSNKALPAPIEKTISKAKGQPREPQVYTLPPCREEMTKNQVSLSCAVKGFYPSDIAVEWESNGQPENNYKTTPPVLDSDGSFFLVSKLTVDKSRWQQGNVFSCSVMHEALHNHYTQKSLSLSPG
notes: also called P-cadherin LP-DART construct #1 (P-CAD 35, CD3-2)
For B5, the Kd in assay [1] was 108 nM. The “T cell Cytotoxicity” value in assay [2] amounted to 0.79 nM.

B6: LP-DART #8 (bispecific antibody)
chain 1: QAVVTQEPSLTVSPGGTVTLTCRSSTGAVTTSNYANWVQQKPGQAPRGLIGGTNKRAPWTPARFSGSLLGGKAALTITGAQAEDEADYYCALWYSNLWVFGGGTKLTVLGGGGSGGGGEVQLVQSGAEVKKPGASVKVSCKASGYTFTSYGISWVRQAPGQGLEWMGWISAYNGNTNYAQKLQGRVTMTTDTSTSTAYMELRSLRSDDTAVYYCATIDTASAFDIWGQGTMVTVSSGGTGGGEPKSSDKTHTCPPCPAPEAAGAPSVFLFPPKPKDTLMISRTPEVTCVVVDVSHEDPEVKFNWYVDGVEVHNAKTKPREEQYNSTYRVVSVLTVLHQDWLNGKEYKCKVSNKALPAPIEKTISKAKGQPREPQVYTLPPCREEMTKNQVSLSCAVKGFYPSDIAVEWESNGQPENNYKTTPPVLDSDGSFFLVSKLTVDKSRWQQGNVFSCSVMHEALHNHYTQKSLSLSPG
chain 2: QSVLTQPPSVSAAPGQKVTISCSGSSSNIGNNYVSWYQQLPGTAPKLLIYDNNKRPSGIPDRFSGSKSGTSATLGITGLQTGDEADYYCGTWDSSLSAVVFGGGTKLTVLGGGSGGGGEVQLVESGGGLVQPGGSLRLSCAASGFTFNTYAMNWVRQAPGKGLEWVARIRSKYNNYATYYADSVKDRFTISRDDSKNSLYLQMNSLKTEDTAVYYCVRHGNFGNSYVSWFAYWGQGTLVTVSSGGTGGGEPKSSDKTHTCPPCPAPEAAGAPSVFLFPPKPKDTLMISRTPEVTCVVVDVSHEDPEVKFNWYVDGVEVHNAKTKPREEQYNSTYRVVSVLTVLHQDWLNGKEYKCKVSNKALPAPIEKTISKAKGQPREPQVCTLPPSREEMTKNQVSLWCLVKGFYPSDIAVEWESNGQPENNYKTTPPVLDSDGSFFLYSKLTVDKSRWQQGNVFSCSVMHEALHNHYTQKSLSLSPG
notes: also called P-cadherin LP-DART construct #8 (P-CAD 35, CD3-2)
In the case of B6, the Kd in assay [1] is 104 nM. Further, the “T cell Cytotoxicity” value in assay [2] stood at 2.27 nM.

The record behind these values is patent US20160002357A1 (Pfizer, published 2016).
